This assay has as its target recombinant gC1q domain of EMILIN1 (UniProt Q9Y6C2). Description: cell adhesion assay (CAFCA, Centrifugal Assay for Fluorescence-based Cell Adhesion); ligand as substrate in CAFCA miniplates; calcein AM-labelled cells centrifuged onto the substrate, 20 min at 37°C, then centrifuged at 500 rpm; bound cells read by fluorescence; for HaCat cells also with integrin blocking antibodies.
Chain of UniProt Q9Y6C2 (Q9Y6C2 22-1016): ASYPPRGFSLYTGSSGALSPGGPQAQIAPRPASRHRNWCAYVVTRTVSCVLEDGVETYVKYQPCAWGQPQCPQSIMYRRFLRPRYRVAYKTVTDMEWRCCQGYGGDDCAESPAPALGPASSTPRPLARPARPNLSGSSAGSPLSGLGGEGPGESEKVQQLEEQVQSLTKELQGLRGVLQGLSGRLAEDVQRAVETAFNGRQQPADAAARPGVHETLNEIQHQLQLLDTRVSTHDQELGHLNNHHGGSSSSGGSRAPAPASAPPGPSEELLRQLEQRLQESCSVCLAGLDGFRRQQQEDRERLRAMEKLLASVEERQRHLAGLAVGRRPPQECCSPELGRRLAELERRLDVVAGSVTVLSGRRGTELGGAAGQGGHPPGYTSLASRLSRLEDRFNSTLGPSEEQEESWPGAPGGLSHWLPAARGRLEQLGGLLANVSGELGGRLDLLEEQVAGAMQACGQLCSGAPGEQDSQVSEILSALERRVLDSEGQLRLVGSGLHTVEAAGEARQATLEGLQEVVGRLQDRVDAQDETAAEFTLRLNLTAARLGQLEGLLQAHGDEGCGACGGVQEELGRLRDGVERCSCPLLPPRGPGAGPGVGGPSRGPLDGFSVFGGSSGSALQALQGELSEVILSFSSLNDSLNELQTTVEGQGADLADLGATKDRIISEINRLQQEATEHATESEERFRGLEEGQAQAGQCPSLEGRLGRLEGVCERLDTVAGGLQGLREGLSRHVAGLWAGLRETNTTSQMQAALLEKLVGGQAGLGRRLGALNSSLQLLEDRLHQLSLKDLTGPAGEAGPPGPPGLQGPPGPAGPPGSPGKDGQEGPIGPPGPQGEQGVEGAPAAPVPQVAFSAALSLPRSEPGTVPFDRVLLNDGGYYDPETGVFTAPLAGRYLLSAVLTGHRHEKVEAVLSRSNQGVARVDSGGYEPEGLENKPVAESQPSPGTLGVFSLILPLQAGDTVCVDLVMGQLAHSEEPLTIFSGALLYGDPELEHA
For the substance “α4β1 integrin on HT29 cells transfected with the wild type α4 integrin chain (from UniProt P13612 34-1032; P05556 21-798) (receptor)”, the percentage of adhesion is 90%.

As to “α4β1 integrin on HT29 cells transfected with the cytoplasmic tail-deleted α4 chain mutant R974 (from UniProt P05556 21-798) (receptor)”, the percentage of adhesion is 90%.

Turning to “α4β1 integrin on SW480 cells transfected with the wild type α4 integrin chain (from UniProt P13612 34-1032; P05556 21-798) (receptor)”, the percentage of adhesion is 60%.

Turning to “α4β1 integrin on SW480 cells transfected with the cytoplasmic tail-deleted α4 chain mutant R974 (from UniProt P05556 21-798) (receptor)”, the percentage of adhesion was 60%.

Source of the values: publication PMC5432316.
